Measured values as given in the DeepSol protein solubility set.

Assay: soluble on expression in E. coli; label from the status in PepcDB or PDB records
In the case of “MGSDKIHHHHHHMYAYHPEDIEDIKELIAQTENEQVEFKETTGQLERGMETLCAFLNGEGGTVLFGITDKGKIIGQEVADVTKRSIAEAINRLEPTANVHVFYIPLPDSSKKIIALHVENSRDNRPFCYKSRPYYRVESVTSAMPQAVYNQLLIIRDEAKYRWELFENPKLSLQDMDENEILKTVRLGIECGRLPENTGNNLSIILEKFGLLVNGVLNNAAAVLFANRELIEYPQCLLRLARFKGTDKMVFMDNQRVQGNLFQLLDSAMTFIFKHLSLSGTTEALEREEHLTIPYKAIREGIINSLCHRQFRTPGGSVGIAIYDDRVEIENPGTFPHGWDMERMKSEHCSEPRNPLIANVLYKRKLLENWGRGISLMTEECRKANLPEPEFKLANGFVILVFRYGTNNHTSTMQVPHKHHISTIQVQSLLNIMEYNTYSVKEMMELLELKNRSYFSKEYLKPAVETGVIEPIFPDQPKSPKQKYRLTEKGKALLEKR”, the “soluble on expression in E. coli” value is reported as “not soluble”.
With “MKPLKEYLLIPTQMRVFETQTQAIETSLSVNAQTSESSEAFTVKKDPHEIKVTGKKSGESELVYDLAGFPIKKTKVHVLPDLKVIPGGQSIGVKLHSVGVLVGFHQINTSEGKKSPGETAGIEAGDIIIEMNGQKIEKMNDVAPFIQKAGKTGESLDLLIKRDKQKIKTKLIPEKDEGEGKYRIGLYIRDSAAGIGTMTFYEPKTKKYGALGHVISDMDTKKPIVVENGEIVKSTVTSIEKGTGGNPGEKLARFSSERKTIGDINRNSPFGIFGTLHQPIQNNISDQALPVAFSTEVKKGPAEILTVIDDDKVEKFDIEIVSTTPQKFPATKGMVLKITDPRLLKETGGIVQGMSGSPIIQNGKVIGAVTHVFVNDPTSGYGVHIEWMLSEAGIDIYGKEKASLEHHHHHH” the “soluble on expression in E. coli” value was “not soluble”.
In the case of “MSLSNAMTSKLERFIDQGVGRVPADIVLKGGCFFDLVTGELVQSDIAIGADRIVGTSGNYEGETEIDISGRIVVPGFIDTHLHIESSLVTPHEFDRCVLPYGVTTAICDPHEIANVLGAAGIEFFLESALETIMDIRVQLSSCVPATHLETSGADLPIESLLPYRHHPKVIGLAEFMNFPGVIHKDPICMAKLDAFQGGHIDGHAPLLSGNDLNGYLAAGIRTEHECTTASEALEKIRKGVHILVREGSVSKDLAALMPIITERLSPFLALCTDDRNPLDIAEQGHLDHMIRTAIASRVEPLAIYRAASISAARAFGLKDRGLVAPGWRADLVVLDSLENCRADMVFSAGRRVTDALFSSRRPVAPIGLDSVKARPVNAAHFGVPVAEGETPVIGVIPGKIITEHRRYRLPVRGNEAAVDLANDIIKVAVIERHGKNGNHANGFVQGFGLKKGAIASTVGHDSHNICVVGVSEDDMARAANRLSEIKGGFVVVEDGKVTGEIALPIAGLMSLEPYETVRDTLHQLRKAAFALGATLEEPFLQLAFLPLPVIPHLKISDRGMVDVDKFALIGEGHHHHHH”, the “soluble on expression in E. coli” value is reported as “soluble”.
For “MEICADELKKVLNTVVNKHKDLKTHGFTLESCRSMIALMDTDGSGKLNLQEFHHLWNKIKAWQKIFKHYDTDQSGTINSYEMRNAVNDAGFHLNNQLYDIITMRYADKHMNIDFDSFICCFVRLEGMFRAFHAFDKDGDGIIKLNVLEWLQLTMYA”, the “soluble on expression in E. coli” value was “soluble”.
With “MGHHHHHHSHMMAALSRKMRVAPFKVGPDYIDPGYHGMAAGHQGRNLDSVMCGIDLIGPLYAHGSANADIAVVEGVMGLFDGRIAQGQNTADAQAQGSSAEIAATLGLPVVLVVDVRGMSQSVGAVVRGFATADPHVRIAGVILNKVGTDRHAEVCREAVEAVGVRVLGAIP” the “soluble on expression in E. coli” value was “not soluble”.
With “SDRKSDRELLYFRKKLQRKLGPISIATPEALLNAHEMLRDKMHYFIEQTQCSVGIFIHRGFKHAGKVLLLMENEGDEELLAYARSLARNNGSVLDVLPETDGLPPTLSMGENRLKAGLPSTINISSYHFMLVSYRYWLRFAGECPSVIEHLPSTIIIHHRNDRSSTLKAAMI” the “soluble on expression in E. coli” value was “not soluble”.
For “MGSHHHHHHDITSLYKKAGSAAAVLEENLYFQGSFTMRRKVFEELVTATKILLNEGIMDTFGHISARDPEDPASFFLAQKLAPSLITVDDIQRFNLDGETSDNRPSYLERYIHSEIYKTRPDVQCVLHTHSPAVLPYCFVDTPLRPVTHMGAFIGESVPVYEIRDKHGDETDLFGGSPDVCADIAESLGSQTVVLMARHGVVNVGKSVREVVFRAFYLEQEAAALTAGLKIGNVKYLSPGEIKTAGKLVGAQIDRGWNHWSQRLRQAGLA”, the “soluble on expression in E. coli” value was “soluble”.
With “MEAWIAEAKALLAALVAVPSVSAEGRALREGAEKVAEVLEGLGLRAELHEGYGPPVVFAEGGEGERTLLFYNHYDVQPPDPLELWDTDPFVLAEREGAWYARGAHDYKGELVVRVVALRRFQEKHGFLPRVKFVVEGEEEVGSPHLEAYVADKRDLLKAEAILWEAGGVDAKGRPYLYAGLKGIVALELRVRTAAFDLHSSYGAVVENPIYRLSRALASLRDEEGRVLIPGFYAKVRPLTPLEMEVLAQIPDESEALREAFGVRDFLGGARNLDFNQRLYAEPCVNFNGFHAGYGGPGSKTVLPAEARAKLDFRLVPDQDPEEVPELLRRHLEAQGFHDVEVVVLEKGERPARSDLAHPFVALARRALEEAFGERPVLYPNMAGSGPMHPFLHHLKAPAVGLGVGYPGSRVHSPNEHIRVRDFERGVQALLRLLELFFLGR” the “soluble on expression in E. coli” value was “soluble”.
For “PTARRDIRFAWSGDTAGQGWGIDDEGMRTYATMAQHQPDFFIHSGDTIYADGPMKDEVEKDGAVIWKNTTLIDEKRKVAETLAEFRGQWKYNLMDEHVQAMNALCPTFFQWDDHEVVNNWSDAKDLSADDRYTEKSVHVLQSRAARAFHEMTPLRITPAEPGRVYRKISYGPMLDVFFLDLRSYRGPNGASMEDEITDQSRILGAEQLAWIKRELAASTATWKVIASDMPIGLIVWDNWKEKAGAEAISNGDHGPAKGRELEIADLLRFIKSAGVRNTVWFTADVHYTAAHHYSPERAQFQDFDPFWEFVSGPLHAGTFGPNDLDRTFGPEVKFVKAPTPEQGVNLPPSMGLQFFGLVDIDAASQQMKVRLMDRGNTELWSVTLDPVLSAI”, the “soluble on expression in E. coli” value was “not soluble”.
In the case of “MGAQYLKRVYLMSVIAETNEALLAKIKALCGDYLREVDTHPGQWDDSSVRRLVRNPPAVYVAWLGQQPNNNPHTVTARWGVFVVAEVLNGQRRNAVGIYQIVETLTAGLHKQRIAPSGMFELQTVQNLWSDTQSGMGVAVYGMYFNAVQPLPDMTSDDTLCDFKIYDHTFNQDKDEHTIDGKTRLTVELPTQSD”, the “soluble on expression in E. coli” value is reported as “not soluble”.
For “MNEQWMSALPLDNVKDISPVSGGDVNEAFKVTTVEEDIFFLLVQRQRSEAFYAAEIAGLNEFENAGITAPRVIASGEINGDAYLLLSFLEEGSQGSQRELARLVARMHSQYQQDNKFGFRLPHEGADISFDNSWTETWKEIFINRRMDHLQDELLRVGLWKQEDKKMYERVRKVIVDELSNHTSKPSLLHGDLWGGNYMFLTNGQPALFDPAPLYGDREFDIGITTVFGGFTQEFYDEYNQQLPLAKGSQKRIEFYRLYLLMIHLLKFGGMYADSVQRSMKIILELEHHHHHH”, the “soluble on expression in E. coli” value was “soluble”.
With “MGSDKIHHHHHHMKDNFFGREYDIAPAGGETGQAFVATHEDEKFFLKRNSSPFLAALSVENIVPKLVWTRRVENGDVITAQKWVNCHILTREEMVGPRVAKLLAKIHHSENLRHMLEKIENCYFSAHQLLARLKAEMKAKNEANNVMQTAIEYLERNITAVEKADYVVCHGDVNHNNWIISEENELFLVDWDGAMLADAANDLGMILYQYIPREGWDEWLSNYGTTLTSELHRKLKWYTLCQTVMQLTTNQSEEAYERAKQIFQNAIEDDEV” the “soluble on expression in E. coli” value was “not soluble”.
With “DPSVVLQMAEGPATYEQAPAGAPPANDPQARFVAKVLGETEDTWGAIFTQSLNRNYVPPKLVLFRGATPTACGTGQAAMGPFYCPGDSKVYIDLGFFDEMERRLNAPGDFAQAYVIAHEVGHHVQHLLGVSEQVDRLRQRNPAQANALSVRMELQADCFAGLWARRADQARNILESGDIEEGLNAASAIGDDTLQKKSQGYVVPDAFTHGSSAQRVRWFKRGLESGDLRQCDTF” the “soluble on expression in E. coli” value was “not soluble”.
In the case of “MNAGKKGVIYTCITGGYDELLNHTFISPEWDYVCFSDDMGINNEKNAQWEIRPLRFEKLDDVRNQRWHKLHPHLLFPESGLSLWVDGNVDILDGEIFHDIDRALNANLLIAPSLHPERNCIYDEFDACRQLGKDDPDVMGRQEYLIKKDGFPKAKGLFETNIIFRCHSHPMVITIMEEWWYWVEQYSRRDQLGFTYVLWKNNYTVEPLSPVSYRFSPGVRFRYGAFHITKEQLIKEKAALEIKVQRFEALICGRLVKVLYKIRKSTVKRWCRVKMQLLNSLCCRKLEHHHHHH”, the “soluble on expression in E. coli” value is reported as “not soluble”.
With “MGSSHHHHHHGGTGENLYFQGGSGTNVPLTQRITAFNNYVGNASNRDRVMSVVQFGAMALAAPAAAAGCPELSAHLSTILHGAAHYRTVTRFSQWLVVAPALTPSGIKSAIASHPNLLVGICKTISTAFFTVFLIGEELVLASKCNMLDPVLGKRFNRIRFVFLFWSNIARLVMSYLLLKSSKYDAVKDNQNEEKAKDHRRKVLGVADGVLQSMFCYTLLKSSAPAGPKYLSAALRSGKAVDIITSLAPPLLVVPSTPQGMLGLAASVPGFMMSVL” the “soluble on expression in E. coli” value was “not soluble”.
With “MTVEASRPARSRQAVIFCYNAGYLPFALHAAERIDRLTPGRAFDICICHGEEPILVPDSLSRLDVRLIRIDTTGVFTGLRLDPGRTHDVYLRLALPQALAADYDRILYLDADIFVQGGDFTALLGLDLGNHPLGAVRDNIQWRTPERRAEQFRRLGIPAAPYFNAGLLLMDVARYNEMNLLDRCVELGRREASRMIRHDQNLYNAVLRGDWAELSPMWNWQYSWSARLFEAMRYPHIVHFIGTLKPWADRKGHYSPRFAQSYDRFIADHFPDRPRNPVSGGLSPDSRMMRRMLVKHFLSSSKLARYLDRFPSDLTVIRLEHHHHHH” the “soluble on expression in E. coli” value was “not soluble”.
With “GSMIRSTLSSWREYLTPITHKSTFLTTGQITPEEFVQAGDYLCHMFPTWKWNEESSDISYRDFLPKNKQFLIIRKVPCDKRAEQCVEVEGPDVIMKGFAEDGDEDDVLEYIGSETEHVQSTPAGGTKDSSIDDIDELIQDMEIKEEDENDDTEEFNAKGGLAKDMAQERYYDLYIAYSTSYRVPKMYIVGFNSNGSPLSPEQMFEDISADYRTKTATIEKLPFYKNSVLSVSIHPCKHANVMKILLDKVRVVRQRRRKELQEEQELDGVGDWEDLQDDIDDSLRVDQYLIVFLKFITSVTPSIQHDYTMEGW” the “soluble on expression in E. coli” value was “soluble”.
With “MVSYGSHSSEVSKVLKTPKFVLRYGNVSSKQRFALKRKINYKLRESKYQEYLNEYNTFVLYDWENSGAGSLVDSSYNLPSLWKEFITEGISKGAINDKLPTVFMKRKLTNSALGHCLGLDFLTDPSESEHEYRCMFQTVQDIPSLSQLILFNSMPNVPVRLKLHTIGININFGCKRSLISNGGDQDTEMSEAVSYIQPLLEESSRMYRNLNYWKLLKIARNNKKDEPLDQSTRIKSQVKLLLSQLATNRITSPSVTDHGGHNWLIFTRRRL” the “soluble on expression in E. coli” value was “not soluble”.
With “MGSDKIHHHHHHMKKVLVAGATGYLGRYAVQEFKNRGYWVRALVRNPEKFKKPGPFFAPEIDTLVDDVVFGDATKPETIAGLCDGIDVVFSSLGMIKPDFEHDNFDVDYQGNMNILAEALKAGVKKFVYVSVFDAHRMMNIPNVQAHEKFVRELQAAKIESTIIRPNGFFSEIGQFVARARRGFMLWIGDGYNRQNPIHGADLAKVCADAVDSSEKEIEVGGPEVFTYREMVDLAIEIAGTQPVQVSLPFWLADGIVGVLGLFNRDVHDVALFATTLSKMDFVSPKYGTHRLRDFFNECKLLPL” the “soluble on expression in E. coli” value was “not soluble”.
With “MKYLSAKSKLNIDAQDGGFTTTLLSYCLENGILDAVVVVGDKNWKPVAYLATTPTELLKSTKSKYSISPNNKLLEYATENYDKVGLVGLPCHILGGLQFDLTLKVGLFCTKNFYYDTIKSIIKERFGVNIDEVAKMNITKGKFVVETLKKKGFAGTEKVVYEIPIKEIEKLCNLGCRVCTDFSAKYADVSVGSVGSEDGWNTVIVRNKMVEDIINEMAEKGLIEVKETVDIKAIEKLENIKKKNEEINKCSAYFAVCPALFLEHHHHHH” the “soluble on expression in E. coli” value was “not soluble”.
